Entries after “also recorded” stand apart in the source; their conditions may differ.
B1: TET1-CD: Human TET1 catalytic domain (Cys-rich and DSBH regions), N-terminal Flag tag, expressed from pcDNA3.1 plasmid; SEQ ID NO:6 (protein, listed as Homo sapiens)
chain: ELPTCSCLDRVIQKDKGPYYTHLGAGPSVAAVREIMENRYGQKGNAIRIEIVVYTGKEGKSSHGCPIAKWVLRRSSDEEKVLCLVRQRTGHHCPTAVMVVLIMVWDGIPLPMADRLYTELTENLKSYNGHPTDRRCTLNENRTCTCQGIDPETCGASFSFGCSWSMYFNGCKFGRSPSPRRFRIDPSSPLHEKNLEDNLQSLATRLAPIYKQYAPVAYQNQVEYENVARECRLGSKEGRPFSGVTACLDFCAHPHRDIHNMNNGSTVVCTLTREDNRSLGVIPQDEQLHVLPLYKLSDTDEFGSKEGMEAKIKSGAIEVLAPRRKKRTCFTQPVPRSGKKRAAMMTEVLAHKIRAVEKKPIPRIKRKNNSTTTNNSKPSSLPTLGSNTETVQPEVKSETEPHFILKSSDNTKTYSLMPSAPHPVKEASPGFSWSPKTASATPAPLKNDATASCGFSERSSTPHCTMPSGRLSGANAAAADGPGISQLGEVAPLPTLSAPVMEPLINSEPSTGVTEPLTPHQPNHQPSFLTSPQDLASSPMEEDEQHSEADEPPSDEPLSDDPLSPAEEKLPHIDEYWSDSEHIFLDANIGGVAIAPAHGSVLIECARRELHATTPVEHPNRNHPTRLSLVFYQHKNLNKPQHGFELNKIKFEAKEAKNKKMKASEQKDQAANEGPEQSSEVNELNQIPSHKALTLTHDNVVTVSPYALTHVAGPYNHWV
modifications: N-terminal Flag tag

Assays:
Type in all cases: cell-based, human
TET1 = test: Demethylation treatment of silenced tumor cell lines: TET1 expression by semi-quantitative RT-PCR; conditions: 10 μmol/L Aza 3 days, alone or combined with HDAC inhibitor; nasopharyngeal, esophageal, colon, breast and renal tumor cell lines with methylated TET1
Source text: Human tumor cell lines of multiple tissue types were used^50-55, including nasopharyngeal (NPC), esophageal squamous cell (ESCC), lung, gastric, colorectal (CRC), hepatocellular (HCC), breast, cervical, renal (RCC), bladder and prostate carcinomas, melanoma, as well as non-Hodgkin (NHL), Hodgkin (HL) and nasal natural killer (NK)/T-cell (NKTCL) lymphomas. Immortalized, non-transformed normal epithelial cell lines were used as “normal” controls. Cell lines were obtained from either American Type Culture Collection or collaborators. When needed, cell lines were treated with 10 μmol/L 5-aza-2′-deoxycytidine (Aza) (Sigma-aldrich, St Louis, Mo.) for 3 days, without or with further treatment with 100 nmol/trichostatin A (TSA) (Cayman Chemical Co., Ann Arbor, Mich.) for additional ˜16 h as previously^50,53. Normal adult and fetal tissue RNA and DNA samples were purchased commercially (Stratagene, La Jolla, Calif.; Millipore-Chemicon, Billerica, Mass.). […]
(§1) Semi-quantitative RT-PCR and quantitative real-time PCR were performed as described before^50,53, with GAPDH as a control for all the samples shown in previous publications^31,51,52. qRT-PCR was carried out according to the manufacturer's protocol (HT7900 system; applied Biosystems), with SYBR Green master mix (applied Biosystems) used.

TET1 promoter = test: Demethylation treatment of silenced tumor cell lines: TET1 promoter methylation by MSP and BGS; conditions: for TET1 promoter demethylation (unmethylated promoter alleles) by MSP: 10 μmol/L Aza 3 days, without or with TSA ~16 h, silenced tumor cell lines
Source text: Human tumor cell lines of multiple tissue types were used^50-55, including nasopharyngeal (NPC), esophageal squamous cell (ESCC), lung, gastric, colorectal (CRC), hepatocellular (HCC), breast, cervical, renal (RCC), bladder and prostate carcinomas, melanoma, as well as non-Hodgkin (NHL), Hodgkin (HL) and nasal natural killer (NK)/T-cell (NKTCL) lymphomas. Immortalized, non-transformed normal epithelial cell lines were used as “normal” controls. Cell lines were obtained from either American Type Culture Collection or collaborators. When needed, cell lines were treated with 10 μmol/L 5-aza-2′-deoxycytidine (Aza) (Sigma-aldrich, St Louis, Mo.) for 3 days, without or with further treatment with 100 nmol/trichostatin A (TSA) (Cayman Chemical Co., Ann Arbor, Mich.) for additional ˜16 h as previously^50,53. Normal adult and fetal tissue RNA and DNA samples were purchased commercially (Stratagene, La Jolla, Calif.; Millipore-Chemicon, Billerica, Mass.). DNA samples of primary carcinomas, nose swab from suspected NPC patients, as well as surgical margin normal tissues, have been described previously^31,51,52.
(§2) CpG island (CGI) analysis for TET1 promoter and exon 1 was performed using CpG island Searcher (http//ccnt.hsc.usc.edu/cpgislands2). Bisulfite modification of genomic DNA was carried out as described previously^56,57. For MSP analysis, approximately 50 ng of bisulfited DNA for each sample was amplified with methylation- or unmethylation-specific primer set, according to previously reported MSP protocol^58. Bisulfite-treated DNA was also amplified using a set of BGS primers, then cloned into pCR4-TOPO vector (Invitrogen, Carlsbad, Calif.), with 8-10 clones randomly picked and sequenced.

[1] = test system: NPC, ESCC, gastric, colon and breast tumor cells; test: Colony formation assay of tumor cells; conditions: ectopic expression
Description: (§3) Human TET1 catalytic domain (TET1-CD) cDNA and its catalytic domain mutant (TET1-CD-mut) clones (Addgene, Cambridge, Mass.) were used as templates to generate TET1 constructs with an N-terminal Flag tag, and subcloned into pcDNA3.1 vector (Invitrogen, Carlsbad, Calif.). Cells were cultured overnight in a 12-well plate and transfected with empty vector or TET1-CD, TET1-CD-mut-expressing plasmids using Lipofectamine 2000 (Invitrogen, Carlsbad, Calif.). Forty-eight hours later, transfectants were replated in triplicate and cultured for 10-15 days in complete medium containing G418. Surviving colonies were stained with crystal violet (0.5% w/v) after methanol fixation, with visible colonies (≥50 cells) counted.

NPC tumor cells (HONE1) = test: TUNEL assay; conditions: compared with vector or TET1-CD-mut controls
Description: Cells cultured on coverslips were fixed with 4% paraformaldehyde, and permeabilized with 0.1% triton X-100. TUNEL (Terminal deoxynucleotidyl transferase dUTP nick end labeling) staining was performed using the In Situ Cell Death Detection Kit (Roche, Mannheim, Germany).

[2] = test system: HOXA9, HOXA5, PCDH7, TCF4, MEIS1, SLIT2 and ZNF382; test: TSG expression by semi-quantitative RT-PCR and qRT-PCR in TET1-CD-expressing carcinoma cells
Description: as §1, §3

[3] = test system: HOXA9, SLIT2 and ZNF382 promoters; test: TSG promoter methylation by MSP in TET1-CD-expressing tumor cells
Description: as §2, §3

| Molecule | TET1 expression after treatment (TET1) | TET1 promoter demethylation (unmethylated promoter alleles) by MSP (TET1 promoter) | TET1 promoter demethylation (unmethylated promoter alleles) by MSP (TET1 promoter; listed as Aza) | TET1 promoter CpG sites by BGS analysis (TET1 promoter; after Aza treatment, alone or combined with HDAC inhibitor) | tumor cell clonogenicity, % of control cells ([1]; NPC, ESCC, gastric, colon and breast tumor cells, vs control cells) | suppression of tumor cell clonogenicity / growth ([1]; colony formation assays of tumor cells of multiple tissue types) | numbers of apoptotic cells (NPC tumor cells (HONE1)) | TSG expression at mRNA levels (HOXA9, HOXA5, PCDH7, TCF4, MEIS1, SLIT2, ZNF382) [2] | methylated alleles of HOXA9, SLIT2 and ZNF382 promoters [3] | unmethylated promoter alleles of HOXA9, SLIT2 and ZNF382 [3] |
| --- | --- | --- | --- | --- | --- | --- | --- | --- | --- | --- |
| Nc1ncn([C@H]2C[C@H](O)[C@@H](CO)O2)c(=O)n1 [5-aza-dC, 5-aza-2′-deoxycytidine] | restoration | increased | demethylated | dramatically demethylated |  |  |  |  |  |  |
| B1 |  |  |  |  | 40-50% | inhibited | significantly increased; also recorded: induced | Mild upregulation; also recorded: upregulated | decreased | increased |

From US11207340B2, “Tumor suppressor TET1 and uses thereof” (The Chinese University of Hong Kong, priority 2017, dated 2021)
